# Source: patent publication US20240174744A1 (SCIRHOM, published 2024)
# Where a chain is given by its changes, count along the chain named.
# T1: hiR1-FL-WT-T7 (human iRhom1 full length wild type C-terminally tagged with 3 consecutive copies of the T7 … (human, UniProt Q96CC6 1-855))
# T1 construct: also called human iRhom1 variant expressed by MEF-DKO-hiR1-FL-WT-T7 cells
# T1 sequence: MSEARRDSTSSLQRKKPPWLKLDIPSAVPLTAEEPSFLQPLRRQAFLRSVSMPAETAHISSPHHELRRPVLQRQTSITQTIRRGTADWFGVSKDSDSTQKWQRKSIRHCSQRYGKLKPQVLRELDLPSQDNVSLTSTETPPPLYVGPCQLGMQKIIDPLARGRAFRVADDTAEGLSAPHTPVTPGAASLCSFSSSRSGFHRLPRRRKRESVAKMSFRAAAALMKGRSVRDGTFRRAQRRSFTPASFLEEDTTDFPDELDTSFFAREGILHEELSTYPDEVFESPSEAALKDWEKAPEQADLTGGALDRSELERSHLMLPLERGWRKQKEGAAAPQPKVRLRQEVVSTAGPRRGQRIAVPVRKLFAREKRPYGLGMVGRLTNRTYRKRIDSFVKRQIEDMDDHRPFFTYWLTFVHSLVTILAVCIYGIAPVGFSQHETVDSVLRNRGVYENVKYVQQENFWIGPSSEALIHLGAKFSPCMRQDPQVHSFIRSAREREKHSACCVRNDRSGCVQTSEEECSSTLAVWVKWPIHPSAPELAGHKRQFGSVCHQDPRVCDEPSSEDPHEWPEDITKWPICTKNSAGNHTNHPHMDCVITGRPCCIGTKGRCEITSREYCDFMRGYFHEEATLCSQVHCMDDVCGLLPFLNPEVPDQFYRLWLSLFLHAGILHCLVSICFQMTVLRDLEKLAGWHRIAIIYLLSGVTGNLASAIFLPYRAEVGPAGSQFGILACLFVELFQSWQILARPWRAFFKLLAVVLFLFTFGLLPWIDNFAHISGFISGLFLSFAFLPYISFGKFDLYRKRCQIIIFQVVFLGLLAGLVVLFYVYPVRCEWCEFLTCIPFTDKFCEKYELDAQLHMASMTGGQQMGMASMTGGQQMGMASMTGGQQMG
# T2: hiR2-FL-P533-T7 (human iRhom2 full length with deletion of P533, 3 x T7 tag) (human, UniProt Q6PJF5 1-856)
# T2 construct: The change is a deletion of one residue, not a substitution
# T2 sequence: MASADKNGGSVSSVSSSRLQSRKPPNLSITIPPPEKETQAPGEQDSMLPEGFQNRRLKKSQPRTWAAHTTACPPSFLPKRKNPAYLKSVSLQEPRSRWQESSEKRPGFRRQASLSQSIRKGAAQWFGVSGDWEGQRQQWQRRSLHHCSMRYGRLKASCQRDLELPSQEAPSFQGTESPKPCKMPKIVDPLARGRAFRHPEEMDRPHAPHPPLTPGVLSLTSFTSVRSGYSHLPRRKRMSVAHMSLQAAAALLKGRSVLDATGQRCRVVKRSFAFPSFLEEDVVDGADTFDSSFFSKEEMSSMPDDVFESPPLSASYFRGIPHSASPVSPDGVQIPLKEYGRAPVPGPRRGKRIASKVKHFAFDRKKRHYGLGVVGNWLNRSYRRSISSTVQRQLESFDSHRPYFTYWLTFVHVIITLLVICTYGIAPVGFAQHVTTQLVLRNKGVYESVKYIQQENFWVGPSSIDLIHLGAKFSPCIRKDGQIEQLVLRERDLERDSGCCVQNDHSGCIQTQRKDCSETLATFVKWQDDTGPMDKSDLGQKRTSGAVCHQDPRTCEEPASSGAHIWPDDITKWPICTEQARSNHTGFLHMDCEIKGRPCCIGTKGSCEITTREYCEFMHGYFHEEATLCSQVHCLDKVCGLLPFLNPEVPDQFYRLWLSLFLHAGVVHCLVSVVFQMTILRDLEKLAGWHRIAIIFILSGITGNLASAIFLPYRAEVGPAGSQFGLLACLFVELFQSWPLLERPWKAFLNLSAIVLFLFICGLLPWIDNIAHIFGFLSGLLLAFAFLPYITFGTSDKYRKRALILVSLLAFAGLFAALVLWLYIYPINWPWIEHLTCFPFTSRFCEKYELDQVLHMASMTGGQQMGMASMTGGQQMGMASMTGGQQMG
# B1: antibody 50 (antibody, V domains shown)
# VH: QVQLQQSGAELVRPGASVKVSCKASGYAFSNYLIEWVKQRPGQGLEWIGVINPGSGFTKYNEKFKGKATLTADKSSSTAYMQLSSLTSEDSAVYFCARGLYRAMDYWGQGTSVTVSS
# VL: DIQMTQSPASQSASLGESVTITCLASQTIGTWLAWYQQKPGKSPQLLIYAAASLADGVPSRFSGGGSGTKFSFKISSLQAEDFVNYYCQQIYSTPYTFGGGTKLEIK
# notes: Mouse IgG, kappa light chain; also called clone #50; purified antibody 50
# B2: antibody 43 (antibody, V domains shown)
# VH: QVALKESGPGILQPSQTLSLTCSFSGFSLSTFGMGVGWIRQSSGKGLEWLANIWWDDDKYYNPALKSRLTISKDASKNQAFLKIANVDTADTATYYCARIGNYGSNYWYFDVWGTGTTVTVSS
# VL: QIVLTQSPAIMSASPGERVTMTCSANSRISYMYWYQQKPGSSPRLLIYDTSNLASGVPVRFSGSGSGTSYSLTISRMEAEDAATYNCQQWSSYPLTFGAGTKLELK
# notes: Mouse IgG, kappa light chain; also called clone #43
# B3: antibody 44 (antibody, V domains shown)
# VH: B2 VH with A3T, S42P, G44E, N52H, A75T, A80I, A85T, D91E, A98S
# VL: QIVLTQSPAVMSASPGEKVTMTCTASSSVYYMYWYQQTPGSSPRLLIYDTSNLASGVPVRFSGSGSGTSYSLTISRMEAEDAATYYCQQWNTYPLTFGAGTKLELK
# notes: Mouse IgG, kappa light chain; also called clone #44; m44
# B4: antibody 5 (antibody, V domains shown)
# VH: B2 VH with A3T, S42P, N52H, D58E, P63S, D74A, A75T, G101S, D111N
# VL: QVVLTQSPALMSASPGEKVTMTCSAGSSVSCMYWYQQKPGSSPRVLIYDTSNLASGVPARFTGSGSGTSYSLTISRMEAEDAASYYCQQWNSYPLTFGAGTKLELK
# notes: Mouse IgG, kappa light chain; also called clone #5; purified antibody 5
# B5: antibody 42 (antibody, V domains shown)
# VH: B2 VH with A3T, F24L, M34R, S42P, N52H, D58E, A75T, A80V, K83R, G101Q
# VL: B2 VL with Q1L, R18K, S24G, N26T, Y33F, L45V, M77V, A82V, N86Y, S91N
# notes: Mouse IgG, kappa light chain; also called clone #42; m42
# B6: antibody 22 (antibody, V domains shown)
# VH: B2 VH with A3T, S42P, N52H, D58E, P63S, D74A, A75T, A80V, G101S, D111N
# VL: B4 VL with C31Y, S84T
# notes: Mouse IgG, kappa light chain; also called clone #22; m22
# B7: antibody 16 (antibody, V domains shown)
# VH: QVTLKESGPGILQPSQTLSLTCSFSGFSLSTFALGVGWIRQPSGRGLEWLAHIWWDDDKYYNPALKSRLTISKDTSKNHVFLKIANVDTADTATYYCARITTYYYGMDYWGQGTSVTVSS
# VL: DIVLSQSPATLSVTPGDSVSLFCRASQSIGNHLHWYQQESHASPRLLIKYASQSISGIPSRFSGSGSGTDFTLSINSVETEDFGMYFCQQSYNWPLTFGAGTKLELK
# notes: Mouse IgG, kappa light chain; also called clone #16; m16
# B8: antibody 3 (antibody, V domains shown)
# VH: QVTLKESGPGILQPSQTLSLTCSFSGFSLTTFAMGIGWVRQPSGKGLEWLAHIWWDGEKYNNPVLKSRLTISKDTSKNQVFLRIANVDTPDTATYYCARISSIYYIIDNWGQGTSVTVSS
# VL: B7 VL with S5T, D17H, F22S, G30S, H32N, Q38K, E39K, A42E, A51V
# notes: Mouse IgG, kappa light chain; also called clone #3; purified antibody 3
# B9: antibody 34 (antibody, V domains shown)
# VH: QVTLKESGPGILQPSQTLSLTCSFSGFSLSTFSLGVGWIRQSSGKGLEWLAHIWWDDEKYYNPALKSRLTISKDTSKNQVFLKIANVDAADTATYYCARAYYSKSYYALDYWGQGTSVTVSS
# VL: DIQMTQSPSSLSASLGERVSLTCRASQEISGYLSWLQQKPDGTIKRLIYAASTLDSGVPKRFSGSRSGSDYSLAISSLESEDFADYYCLQYANFPFTFGSGTKLEIK
# notes: Mouse IgG, kappa light chain; also called clone #34; m34
# Target: T1, hiR1-FL-WT-T7 (human iRhom1 full length …)
# Test: FACS on cells of the row human iR1 wild type, vs human iR2 wild type = 100%
row,Binder,grade of loss of binding vs wild type
1,B1,3 grade (3 => 95% loss of binding vs wild type)
2,B2,3 grade (3 => 95% loss of binding vs wild type)
3,B3,3 grade (3 => 95% loss of binding vs wild type)
4,B4,3 grade (3 => 95% loss of binding vs wild type)
5,B5,3 grade (3 => 95% loss of binding vs wild type)
6,B6,3 grade (3 => 95% loss of binding vs wild type)
7,B7,3 grade (3 => 95% loss of binding vs wild type)
8,B8,3 grade (3 => 95% loss of binding vs wild type)
9,B9,3 grade (3 => 95% loss of binding vs wild type)

# Target: T3, mouse iR1 wild type (mouse)
# T3 construct: wild type; also called mouse iRhom1 wild type; miR1-FL WT
# Test: FACS on cells expressing mouse iR1 wild type, vs human iR2 wild type = 100%
# T3 sequence (Q6PIX5 whole entry): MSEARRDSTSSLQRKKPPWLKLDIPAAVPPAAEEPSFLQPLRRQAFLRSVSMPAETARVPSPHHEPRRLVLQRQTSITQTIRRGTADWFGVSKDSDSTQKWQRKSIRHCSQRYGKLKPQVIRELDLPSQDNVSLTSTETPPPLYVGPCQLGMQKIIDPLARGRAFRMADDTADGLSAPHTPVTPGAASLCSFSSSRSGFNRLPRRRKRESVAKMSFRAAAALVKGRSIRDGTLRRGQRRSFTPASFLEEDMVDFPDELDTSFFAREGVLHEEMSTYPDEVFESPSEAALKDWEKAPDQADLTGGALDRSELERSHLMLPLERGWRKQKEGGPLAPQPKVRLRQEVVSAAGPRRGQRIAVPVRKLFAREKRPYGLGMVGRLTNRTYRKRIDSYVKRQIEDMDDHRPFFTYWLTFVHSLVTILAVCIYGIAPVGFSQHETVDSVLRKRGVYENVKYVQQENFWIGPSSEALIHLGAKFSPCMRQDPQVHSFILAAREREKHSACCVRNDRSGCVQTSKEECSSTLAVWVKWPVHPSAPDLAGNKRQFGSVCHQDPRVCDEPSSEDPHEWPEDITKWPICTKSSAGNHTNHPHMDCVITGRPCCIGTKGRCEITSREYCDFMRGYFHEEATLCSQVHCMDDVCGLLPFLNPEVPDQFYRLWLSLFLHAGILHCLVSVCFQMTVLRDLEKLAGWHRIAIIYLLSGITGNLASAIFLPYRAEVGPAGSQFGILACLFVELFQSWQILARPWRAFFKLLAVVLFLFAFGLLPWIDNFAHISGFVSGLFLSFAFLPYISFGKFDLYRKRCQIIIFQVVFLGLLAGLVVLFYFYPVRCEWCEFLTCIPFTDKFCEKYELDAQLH
row,Binder,grade of loss of binding vs wild type
1,B1,3 grade (3 => 95% loss of binding vs wild type)
2,B2,3 grade (3 => 95% loss of binding vs wild type)
3,B3,3 grade (3 => 95% loss of binding vs wild type)
4,B4,3 grade (3 => 95% loss of binding vs wild type)
5,B5,3 grade (3 => 95% loss of binding vs wild type)
6,B6,3 grade (3 => 95% loss of binding vs wild type)
7,B7,3 grade (3 => 95% loss of binding vs wild type)
8,B8,3 grade (3 => 95% loss of binding vs wild type)
9,B9,3 grade (3 => 95% loss of binding vs wild type)

# Target: T2, hiR2-FL-P533-T7 (human iRhom2 full …)
# Test: FACS on cells of the row P533-
row,Binder,binding result
1,B2,no binding (tested: 3 µg/ml)
2,B3,no binding (tested: 3 µg/ml)
3,B4,no binding (tested: 3 µg/ml)
4,B5,no binding (tested: 3 µg/ml)
5,B6,no binding (tested: 3 µg/ml)
6,B7,no binding (tested: 3 µg/ml)
7,B9,no binding (tested: 3 µg/ml)
